Results: article PMC5165034 (Frontiers in Immunology, 2016)
Positions count from the first letter of the chain named.

B1: 4A12 (VHH)
VHH: EVQLVESGGGLVKPGGSLRLSCAASGFTFSDYYMSWIRQAPGKGLEWVSYISSSGNTIYYADSVKGRFTISRDNAKNSLYLQMNSLRAEDTAVYYCARDRLGMVRPLHYWGQGTLVTVSS
B2: 2F5 (VHH)
VHH: B1 VHH with G10D, K13E, S53G
B3: 2E6 (VHH)
VHH: B1 VHH with S53G
B4: 3B8 (VHH)
VHH: B1 VHH with S53G, K65R, V93L, L101A, P106G, L107P
B5: 3A6 (VHH)
VHH: B1 VHH with S53G, V104D
B6: 4F5 (VHH)
VHH: B1 VHH with N56S, D99R, L101S, G102L, M103T, R105G, P106A, L107P, H108T
B7: 6F7 (VHH)
VHH: EVQLVESGGGLVKPGGSLRLSCAASGFTFSDYYMSWIRQAPGKGLEWVSYISSSGRTIYYADSVKGRFTISRDNAKNSLYLQMNSLRAEDTAVYYCARGGIAVAGTTRHYSDYWGQGTLVTVSS
B8: 4F9 (VHH)
VHH: EVQLVESGGGLVKPGGSLRLSCAASGFTFSDYYMSWIRQAPGKGLEWVSYISSSGSTIYYADSVKGRFTISRDNAKNSLYLQMNSLRAEDTAVYYCARDLVGATDFDYWGQGTLVTVSS
B9: 1B1 (VHH)
VHH: EVQLVESGGGLVKSGGSLRLSCAASGFTFSDYYMSWIRQAPGKGLEWVSYISSSGSTIYYADSVKGRFTISRDNAKNSLYLQMNSLRAEDTAVYYCARGISMARDYWGQGTLVTVSS
B10: 1H11 (VHH)
VHH: B9 VHH with S14P, Q39R, T57N, A61V, S101A, A103T, R104G, L112Q, S116T
B11: 1F10 (VHH)
VHH: B9 VHH with S14P, N84S, M102L, A103T, R104G, D105T, Y106D
B12: 1F12 (VHH)
VHH: B9 VHH with S14P, T57N, S101A, M102V, R104E, Y106V, L112T
B13: 1C9 (VHH)
VHH: B9 VHH with S14P, R98K, M102T, A103T, R104G, T111A, T114S
B14: 7H12 (VHH)
VHH: B9 VHH with S14P, A103V, R104G
B15: 1C8 (VHH)
VHH: B9 VHH with S14P, A103V, R104G, Y106N
B16: 1D10 (VHH)
VHH: B9 VHH with S14P, S54G, S56D, A103T, R104G, T114N
B17: 1F1 (VHH)
VHH: B9 VHH with S14P, I100V, S101K, M102L, A103T, R104E, Y106N
B18: 1A7 (VHH)
VHH: B9 VHH with S14P, A103T, R104G, T114N
B19: 1C4 (VHH)
VHH: B9 VHH with S14P, R104G, Y106S
B20: 4D7 (VHH)
VHH: B9 VHH with S7F, S14P, T57N, S71T, A103T, R104G, L112Q
B21: 4H7 (VHH)
VHH: B9 VHH with S14P, M102V, A103T, R104G, Y106S
B22: 1H4 (VHH)
VHH: B9 VHH with S14P, S101A, A103V, R104E, Y106S
B23: 4E8 (VHH)
VHH: B9 VHH with S14P, M102L, A103T, R104G
B24: 4G9 (VHH)
VHH: EVQLLESGGGLVQRGGSLRLSCAASGFTFSSYAMSWVRQAPGKGLEWVSAISGSGGSTHYADSVKGRFTISRDNSKNTLYLQMNSLRAEDTAVYYCAKKGDRGYFFDYWGQGTLVTVSS
B25: 3A5 (VHH)
VHH: EVQLVESGGGLVKPGGSLRLSCAASGFIFSDYYMSWIRQAPGKGLEWISYISSSGDSIYYADSVKGRFTISRDDAKNSLSLQMNSLRAEDTAVYYCARGWFGESHYSDFWGQGTLVTVSS
B26: 2B5 (VHH)
VHH: EVQLVESGGGLVKPGGSLRLSCAASGFTFSDYYMTWIRQTPGKGLEWVSYISDDNNTIYYADSVKGRFTISRDNAKNSLYLQMNSLRAEDTAVYYCARDGYFGELPGFDYWGQGTLVTVSS
B27: 2D1 (VHH)
VHH: EVQLVESGGGLVKPGGSLRLSCAASGFTFSDYYMSWIRQAPGKGLEWVSYISSSGSTIYYADSVRGRFTISRDNAKDSLYLQMNSLRAEDTAVYYCARRRSLTVGAPTYWGQGTLVTVSS
B28: 2E2 (VHH)
VHH: B27 VHH with A23E, R65K
B29: 2B3 (VHH)
VHH: B27 VHH with T57I, R65K
B30: 4D3 (VHH)
VHH: B27 VHH with I58L
B31: 1D8 (VHH)
VHH: EVQLVESGGGLVKPGGSLRLSCAASGFTFSDYYMSWIRQAPGKGLEWVSYISSSGSTIYYADSVKGRFTISRDNAKNSLYLQMNSLRAEDTAVYYCARGPPFDYWGQGTLVTVSS
B32: 3C8 (VHH)
VHH: EVQLLESGGGLVQPGGSLRLSCAASGFTFSSYAMSWVRQAPGKGLEWVSAITGSGSSTYYADSVKGRFTISRDNSKNTLYLQMNSLRAEDTAVYYCAKDRPYGSGSYKYGMDVGGQGTTVTVSS

What follows are binders tested against influenza virus X-31 hemagglutinin (HA) (Influenza A virus X-31 (H3N2; HA of …, UniProt P03437, strain).

Binder	binding result
B1	binds
B2	binds
B3	binds
B4	binds
B5	binds
B6	binds
B7	binds
B8	binds
B9	binds
B10	binds
B11	binds
B12	binds
B13	binds
B14	binds
B15	binds
B16	binds

Binder	binding result
B17	binds
B18	binds
B19	binds
B20	binds
B21	binds
B22	binds
B23	binds
B24	binds
B25	binds
B26	binds
B27	binds
B28	binds
B29	binds
B30	binds
B31	binds
B32	binds
